Experimental data from publication PMC2953525, “Subtle Alterations in PCNA-Partner Interactions Severely Impair DNA Replication and Repair” (PLoS Biology, 2010).

How the values were obtained:
Assay in all cases: Yeast two hybrid (Y2H) analysis of PCNA-partner interaction
Format in all cases: binding
Set-up in all cases: key: ++: major increase in growth; +: moderate increase in growth; similar growth as the WT PCNA-expressing cells; -: minor decrease in growth; --: moderate decrease in growth; ---: major decrease in growth
Details in all cases: spotting onto selective agar plates; PCNA fused to AD, partner to BD
Apn2 = test system: Apn2
Description: (§1) Y2H analysis was performed using the Yeast Two Hybrid Phagemid vector kit (Stratagene), following the manufacturer's instructions. The pAD-PCNA-WT/mutant plasmids were used as bait while plasmids encoding 12 different PCNA partners (Table 1 and Table S1) were used as prey. The YRG2 host strain (Stratagene) was cotransformed with pAD-PCNA WT/mutant and pBD-partner plasmids in all possible combinations using the LiAC method. Single transformants were grown in liquid SC-Leu-Trp to O.D600 10, washed twice with DDW, and diluted to an initial OD600 of 0.3. A series of 10-fold serial dilutions was then spotted onto selective SC-Leu-Trp-His plates and incubated at 30°C for 3 d. For quantitative Y2H, the generation time of the indicated mutants and their respective partners were calculated from their growth curves in liquid SC-Leu-Trp-His media. Cells were grown overnight in SC-Leu-Trp, washed twice with ddH2O, and diluted by a factor of 1∶50 into 10 ml of pre-warmed SC-Leu-Trp-His. O.D600 measurements of the cultures were taken at the indicated time; the generation time (τ) was calculated from the growth curves according to the equation ODt = OD0×2^t/τ. The generation time calculated for each culture is an average of at least 3 independent experiments.
(§2) Table S1: Yeast two hybrid analysis of binding of selected PCNA mutants with seven additional partners not described in Table 1 of the main text. […]
(§3) pol30-Rad30E2 WT WT WT WT WT WT - pol30-Rad30E9 WT WT WT WT WT WT WT pol30-Rad27E6 WT WT WT WT + WT WT pol30-Rad27E31 WT WT WT WT + WT WT pol30-Rad27L1 WT -- WT WT -- WT WT pol30-Rad27L2 WT -- WT WT -- WT WT pol30-Pol32E5 WT WT WT WT WT WT WT pol30-Pol32E9 - WT WT WT WT WT WT pol30-Msh6E2 WT WT + WT WT WT WT pol30-Msh6E6 WT WT ++ WT WT WT WT pol30-Ung1E3 WT - WT WT WT WT WT pol30-79 --- --- --- - --- --- --- a PCNA mutants with enhanced affinities for the different target partners (see Table 1, text). b PCNA mutants were fused to the activating domain (AD), while the different partners were fused to the DNA-binding domain (BD). The growth of the resulting Y2H strains was compared to the growth of the WT PCNA-expressing strain following spotting onto selective agar plates (see Material and Methods). Growth rates on the agar plates were scored and tabulated as follows: ++ major increase in growth; + moderate increase in growth; WT-similar growth as the WT PCNA-expressing cells; - minor decrease in growth; -- moderate decrease in growth; --- major decrease in growth. ND-Not determined.

Cac1 = test system: Cac1
Description: as §1, §2, §3

Cdc9 = test system: Cdc9
Description: as §1, §2, §3

Eco1 = test system: Eco1
Description: as §1, §2, §3

Msh3 = test system: Msh3
Description: as §1, §2, §3

Rfc1 = test system: Rfc1
Description: as §1, §2, §3

Rrm3 = test system: Rrm3
Description: as §1, §2, §3

B1: pol30-Msh6E2: PCNA mutant evolved for Msh6, IDCL sequence DYDRDMLKISEL (protein)
chain: MLEAKFEEASLFKRIIDGFKDCVQLVNFQCKEDGIIAQAVDDSRVLLVSLEIGVEAFQEYRCDHPVTLGMDLTSLSKILRCGNNTDTLTLIADNTPDSIILLFEDTKKDRIAEYSLKLMDYDRDMLKISELQYDSTLSLPSSEFSKIVRDLSQLSDSINIMITKETIKFVADGDIGSGSVIIKPFVDMEHPETSIKLEMDQPVDLTFGAKYLLDIIKGSSLSDRVGIRLSSEAPALFQFDLKSGFLQFFLAPKFNDEE
modifications: left off: Gal4 activation domain, end not stated, kept
For B1, the “Y2H growth relative to WT PCNA-expressing strain: Apn2” value (Apn2) was “WT”, the “Y2H growth relative to WT PCNA-expressing strain: Cac1” value (Cac1) was “WT” and the “Y2H growth relative to WT PCNA-expressing strain: Cdc9” value (Cdc9) was “WT”. For the same molecule, the “Y2H growth relative to WT PCNA-expressing strain: Eco1” value (Eco1) was “WT”, the “Y2H growth relative to WT PCNA-expressing strain: Msh3” value (Msh3) was “+” and the “Y2H growth relative to WT PCNA-expressing strain: Rfc1” value (Rfc1) was “WT”. For the same molecule, the “Y2H growth relative to WT PCNA-expressing strain: Rrm3” value (Rrm3) was “WT”.
